Experimental data reported in publication PMC8949964, “In Vitro Biological Evaluation of Aprepitant Based ^177Lu-Radioconjugates” (Pharmaceutics, 2022).
Several values for one entry are separate records, joined by “and”; a condition that tells them apart may be missing. Equal values may be shown once. Read-outs that look alike come from different tables or passages of the source. Square brackets hold non-standard residues; d marks the D form. Peptide text beside a SMILES is read from it. * marks the point of attachment. DOTA = O=C(O)CN1CCN(CC(=O)O)CCN(CC(=O)*)CCN(CC(=O)O)CC1; Met(O2) = CS(=O)(=O)CC[C@H](N)C(=O)O; 2Thi = N[C@@H](Cc1cccs1)C(=O)O

Columns and labels:
[1] = format: physicochemical
Protocol: A solution of purified ^177Lu-radioconjugate (around 1 MBq) or ^68Ga-radioconjugate (around 10 MBq) in 100 µL of 0.1M DPBS buffer was added into of 900 µL of 0.1 M DPBS buffer and 1000 µL of N-octanol (saturated with each other), vigorously stirred and centrifuged at 13,500 rpm for 5 min. Then, similar aliquots of both separated phases were taken for radioactivity measurement using a well-type NaI(Tl) detector. The lipophilicity values were expressed as the decimal logarithm of the distribution coefficient, D, which was calculated as a ratio of the radioconjugate radioactivity in the organic phase to that in the aqueous phase. Each experiment was performed in triplicate and the obtained values averaged. In parallel, the aqueous phases were analyzed by HPLC to confirm the stability of the studied radioconjugate during the experiment time.

[2] = target: T1, human NK1 receptor (Homo sapiens, UniProt P25103); assay: Saturation binding of 177Lu-radioconjugates to hNK1R-CHO cells; conditions: maximal binding concentration, 60 min at 37 °C, specific activity 5 MBq/nmol
T1 construct: expressed in transfected cells; host or cells: CHO-K1 (hNK1R-CHO), gift from Dr. Attila Keresztes and Dr. John M. Streicher
T1 sequence (P25103 whole entry): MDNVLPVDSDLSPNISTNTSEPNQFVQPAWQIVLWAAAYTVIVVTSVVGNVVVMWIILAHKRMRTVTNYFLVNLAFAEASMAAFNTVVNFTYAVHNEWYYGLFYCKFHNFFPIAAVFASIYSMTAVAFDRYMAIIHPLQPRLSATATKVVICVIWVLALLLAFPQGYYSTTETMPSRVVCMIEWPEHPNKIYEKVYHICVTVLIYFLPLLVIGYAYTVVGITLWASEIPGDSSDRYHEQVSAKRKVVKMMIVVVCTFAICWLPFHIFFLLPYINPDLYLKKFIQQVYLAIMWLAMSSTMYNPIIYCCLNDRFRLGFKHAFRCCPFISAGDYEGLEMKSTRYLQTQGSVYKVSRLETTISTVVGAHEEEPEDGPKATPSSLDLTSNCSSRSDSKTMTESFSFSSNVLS
Protocol: Cells were grown in Ham’s F12 medium (Biological Industries, Beit HaEmek, Israel) supplemented with 10% Foetal Bovine Serum (Biological Industries, Beit HaEmek, Israel) and 400 μg/mL G418 (Capricorn Scientific, Ebsdorfergrund, Germany), incubated in a humidified atmosphere with 5% CO2 at 37 °C.
In brief, 10^5 cells per well were seeded into 24-well plates and incubated 24 h before the experiment. Just before the assay, the cells were washed with 37 °C Dulbecco’s PBS and then incubated with different concentrations of an analyzed radioconjugate (0.2–50 nM at a final volume) in the medium, with or without a 1000-fold molar excess of blocker (aprepitant or [Thi^8,Met(O2)^11]SP) in relation to the highest radioconjugate concentration applied for 60 min at 37 °C. After incubation time, the assay medium was collected into plastic tubes for radioactivity measurement and the cells were washed twice with ice-cold Dulbecco’s PBS. Subsequently, the cells were lysed using 1 M NaOH and collected into plastic tubes also for radioactivity measurement.
The radioactivity of collected samples were measured using a Wizard2 2-Detector Gamma Counter (PerkinElmer, Waltham, MA, USA). […] The Kd and BMAX with standard deviations (SD), were calculated using the “One site-total and nonspecific binding” nonlinear regression curve fit (GraphPad Prism 8, GraphPad, San Diego, CA, USA).

| BMAX ± SD [2] | SMILES | logD ([1]; pH 7.4, logD 68Ga-) | logD ([1]; pH 7.4, logD 177Lu-) |
| --- | --- | --- | --- |
|  | C[C@@H](O[C@H]1OCCN(Cc2nn(CCCCCCCCCCNC(=O)CN3CCN(CC(=O)O)CCN(CC(=O)O)CCN(CC(=O)O)CC3)c(=O)[nH]2)[C@H]1c1ccc(F)cc1)c1cc(C(F)(F)F)cc(C(F)(F)F)c1 [APT-Dec-DOTA, 2-(10-(2-(1,4,7-tris(carboxymethyl)-1,4,7,10-tetraazacyclododecan-10-yl)acetamido)decyl)-5-([(2R,3S)-2-((R)-1-[3,5-bis(trifluoromethyl)phenyl]ethoxy)-3-(4-fluorophenyl)morpholino]methyl)-1H-1,2,4-triazol-3-one] | 1.6 ± 0.04 | 1.97 ± 0.02 |
|  | C[C@@H](O[C@H]1OCCN(Cc2nn(CCCCCCNC(=O)CN3CCN(CC(=O)O)CCN(CC(=O)O)CCN(CC(=O)O)CC3)c(=O)[nH]2)[C@H]1c1ccc(F)cc1)c1cc(C(F)(F)F)cc(C(F)(F)F)c1 [APT-Hex-DOTA, 2-(6-(2-(1,4,7-tris(carboxymethyl)-1,4,7,10-tetraazacyclododecan-10-yl)acetamido)hexyl)-5-([(2R,3S)-2-((R)-1-[3,5-bis(trifluoromethyl)phenyl]ethoxy)-3-(4-fluorophenyl)morpholino]methyl)-1H-1,2,4-triazol-3-one] | 0.58 ± 0.03 | 1.23 ± 0.03 |
|  | C[C@@H](O[C@H]1OCCN(Cc2nn(CCCCCCCCNC(=O)CN3CCN(CC(=O)O)CCN(CC(=O)O)CCN(CC(=O)O)CC3)c(=O)[nH]2)[C@H]1c1ccc(F)cc1)c1cc(C(F)(F)F)cc(C(F)(F)F)c1 [APT-Oct-DOTA, 2-(8-(2-(1,4,7-tris(carboxymethyl)-1,4,7,10-tetraazacyclododecan-10-yl)acetamido)octyl)-5-([(2R,3S)-2-((R)-1-[3,5-bis(trifluoromethyl)phenyl]ethoxy)-3-(4-fluorophenyl)morpholino]methyl)-1H-1,2,4-triazol-3-one] | 1.32 ± 0.04 | 1.64 ± 0.02 |
| 0.38 nM and 0.38 ± 0.02 nM | CC(C)C[C@H](NC(=O)CNC(=O)[C@H](Cc1cccs1)NC(=O)[C@H](Cc1ccccc1)NC(=O)[C@H](CCC(N)=O)NC(=O)[C@H](CCC(N)=O)NC(=O)[C@@H]1CCCN1C(=O)[C@H](CCCCN)NC(=O)[C@@H]1CCCN1C(=O)[C@H](CCCNC(=N)N)NC(=O)CN1CCN(CC(=O)O)CCN(CC(=O)O)CCN(CC(=O)O)CC1)C(=O)N[C@@H](CCS(C)(=O)=O)C(N)=O [[^177Lu]Lu-DOTA-[Thi^8,Met(O2)^11]SP, metal not drawn] ({DOTA}-RPKPQQF[2Thi]GL[Met(O2)]-NH2; N-terminus and C-terminus assumed) |  |  |
